This passage reports 平均蛍光強度(MFI) results from patent JP2016135753A.

The target of the assay is SLA-1*0401/β2M (HEK293トランスフェクタント細胞表面) (pig) (UniProt Q07717). The assay is described as follows: flow cytometry of hybridoma supernatant on SLA-1*0401/β2M HEK293 transfectants. In general terms: A flow cytometer gives signals particle by particle.

B1: モノクローナル抗体X2F6 (antibody, mouse IgG2a, kappa, V domains shown)
VH: QVQLQQSGAELVKPGASVKLSCKASGYTFTSYDINWVRQRPEQGLEWIGWIYPGDGSTKYNEKFKGKATLTTDKSSSTAYMQLSRLTSEDSAVYFCASPYYYGSSPFAYWGQGTLVTVSA
VL: DIQMTQSPASLSASVGETVTITCRASENIYSYLAWYQQKQGKSPQLLVYNAKTLAEGVPSRFSGSGSGTQFSLKINSLQPEDFGSYYCQHHYGTPRTFGGGTKLEIKR
On to B1, for which the 平均蛍光強度(MFI) came to 3000.
